T1: SIP2 D1 (Plasmodium falciparum, UniProt C6KSN9 177-235)
T1 sequence: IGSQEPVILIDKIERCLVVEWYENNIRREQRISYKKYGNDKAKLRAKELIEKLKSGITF

T2: HDP1 homeodomain-like (Plasmodium falciparum, UniProt Q8IKH4 2990-3078)
T2 sequence: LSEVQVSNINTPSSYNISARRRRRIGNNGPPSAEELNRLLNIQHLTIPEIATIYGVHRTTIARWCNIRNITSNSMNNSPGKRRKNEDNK

B1: GTGCAC_negctrl_site669 (dsDNA)
DNA 1: AAAAAAAAGTATGATTCTAAATTTATGTATATATAA
DNA 2: TTATATATACATAAATTTAGAATCATACTTTTTTTT
B2: GTGCAC_site10054 (dsDNA)
DNA 1: GTCTATATATTTTAGGTGCAACGTAAATGTAAAAAT
DNA 2: ATTTTTACATTTACGTTGCACCTAAAATATATAGAC
B3: GTGCAC_site9812 (dsDNA)
DNA 1: TGTTTTATTTTTTTTGTGCACATACCTTTAGCATCA
DNA 2: TGATGCTAAAGGTATGTGCACAAAAAAAATAAAACA
B4: GTGCAC_site10073 (dsDNA)
DNA 1: AAATACTGTACAAAGGTGCATAAAAAGTGGGGCATA
DNA 2: TATGCCCCACTTTTTATGCACCTTTGTACAGTATTT
B5: GTGCAC_site9957 (dsDNA)
DNA 1: TTTTAATGTACCAGTGTGCACCTTGCGTACATATTA
DNA 2: TAATATGTACGCAAGGTGCACACTGGTACATTAAAA
B6: GTGCAC_site9596 (dsDNA)
DNA 1: TATATTTTTATGTGTGTGCACAAAATAACAAAATAT
DNA 2: ATATTTTGTTATTTTGTGCACACACATAAAAATATA
B7: GTGCAC_site9536 (dsDNA)
DNA 1: AATAATATACCTCTTGTGCACATATTAAAAGTTCAT
DNA 2: ATGAACTTTTAATATGTGCACAAGAGGTATATTATT
B8: GTGCAC_negctrl_site701 (dsDNA)
DNA 1: ATTAATATGAAACGATTATAAGAAAGAAAAGAAATG
DNA 2: CATTTCTTTTCTTTCTTATAATCGTTTCATATTAAT
B9: GTGCAC_site9624 (dsDNA)
DNA 1: GACAAATAATAAAAGGTGCATTATACTTAACAAAAA
DNA 2: TTTTTGTTAAGTATAATGCACCTTTTATTATTTGTC
B10: GTGCAC_site10340 (dsDNA)
DNA 1: ATTATTATTAATCTTGTGCACATATATTTTAATTAG
DNA 2: CTAATTAAAATATATGTGCACAAGATTAATAATAAT
B11: GTGCAC_negctrl_site129 (dsDNA)
DNA 1: AATTTAATCCGTAATAAGAAAAGAAAAAAAAAAAGA
DNA 2: TCTTTTTTTTTTTCTTTTCTTATTACGGATTAAATT
B12: GTGCAC_site10342 (dsDNA)
DNA 1: TTTTTAAACCATGTTGTGCACATTTTTTTTGGATTT
DNA 2: AAATCCAAAAAAAATGTGCACAACATGGTTTAAAAA
B13: GTGCAC_site10451 (dsDNA)
DNA 1: ATGTTATAATTTAGTGTGCACATATTAAGAGGAACA
DNA 2: TGTTCCTCTTAATATGTGCACACTAAATTATAACAT
B14: GTGCAC_site10770 (dsDNA)
DNA 1: TATATACATTTTTATGTGCACATTTTATTTTTAAAT
DNA 2: ATTTAAAAATAAAATGTGCACATAAAAATGTATATA
B15: GTGCAC_negctrl_site283 (dsDNA)
DNA 1: ATAATTCCAAGAATTTCATATATCTGAATTTTAGGT
DNA 2: ACCTAAAATTCAGATATATGAAATTCTTGGAATTAT
B16: GTGCAC_site10523 (dsDNA)
DNA 1: TCGTTTCATAATATTGTGCACATATATATTTACAAT
DNA 2: ATTGTAAATATATATGTGCACAATATTATGAAACGA
B17: GTGCAC_site9431 (dsDNA)
DNA 1: TCTTCTTTAAAAGAGGTGCACTATATAATGTGATTA
DNA 2: TAATCACATTATATAGTGCACCTCTTTTAAAGAAGA
B18: GTGCAC_site9630 (dsDNA)
DNA 1: TTTAATTTATATTTTGTGCACATCTTATTATATATA
DNA 2: TATATATAATAAGATGTGCACAAAATATAAATTAAA
B19: GTGCAC_negctrl_site490 (dsDNA)
DNA 1: TGTATAAAAAGAAAAAATCGTATGTGTTATCAAAAA
DNA 2: TTTTTGATAACACATACGATTTTTTCTTTTTATACA
B20: GTGCAC_site9611 (dsDNA)
DNA 1: TATGAAACGATATATGTGCACATGAGGGAATATAGA
DNA 2: TCTATATTCCCTCATGTGCACATATATCGTTTCATA
B21: GTGCAC_site9422 (dsDNA)
DNA 1: CACTCTTAAAATAAGGTGCACTATATAACGTGATTA
DNA 2: TAATCACGTTATATAGTGCACCTTATTTTAAGAGTG
B22: GTGCAC_site9615 (dsDNA)
DNA 1: TTATTTTATTTTTTTGTGCACATATATATTTATAAA
DNA 2: TTTATAAATATATATGTGCACAAAAAAATAAAATAA
B23: GTGCAC_site9947 (dsDNA)
DNA 1: TATTTGAAAACATAGGTGCACATTATTTTATAATCT
DNA 2: AGATTATAAAATAATGTGCACCTATGTTTTCAAATA
B24: GTGCAC_negctrl_site278 (dsDNA)
DNA 1: TTTTTTACATACAGAAATATATAATATAAAATAAAT
DNA 2: ATTTATTTTATATTATATATTTCTGTATGTAAAAAA
B25: GTGCAC_site10051 (dsDNA)
DNA 1: AATAAATTAAAACAGGTGCACTATATTACACACGCT
DNA 2: AGCGTGTGTAATATAGTGCACCTGTTTTAATTTATT
B26: GTGCAC_site9981 (dsDNA)
DNA 1: ATAATGTTCACATAGGTGCACTAATATAATTATCCA
DNA 2: TGGATAATTATATTAGTGCACCTATGTGAACATTAT
B27: GTGCAC_site10368 (dsDNA)
DNA 1: ACATGTGAATTTTAGGTGCACTTGTAATTTAACATT
DNA 2: AATGTTAAATTACAAGTGCACCTAAAATTCACATGT
B28: GTGCAC_site10755 (dsDNA)
DNA 1: TAATGCAACATTTATGTGCACATAAATATTTTTTAA
DNA 2: TTAAAAAATATTTATGTGCACATAAATGTTGCATTA
B29: GTGCAC_site9671 (dsDNA)
DNA 1: GTTACAGAGAATGTTGTGCACATATCAATAATATAT
DNA 2: ATATATTATTGATATGTGCACAACATTCTCTGTAAC
B30: GTGCAC_site10700 (dsDNA)
DNA 1: ATTATACAAATTGAGGTGCATGAAACAAAATATGAA
DNA 2: TTCATATTTTGTTTCATGCACCTCAATTTGTATAAT
B31: GTGCAC_site10418 (dsDNA)
DNA 1: CTTTTCTATTTTTTCGTGCACTATAAATATTTTAAT
DNA 2: ATTAAAATATTTATAGTGCACGAAAAAATAGAAAAG
B32: GTGCAC_site10578 (dsDNA)
DNA 1: CATATTGTCATTCTGGTGCACTTTTTTTTTTTTTTT
DNA 2: AAAAAAAAAAAAAAAGTGCACCAGAATGACAATATG
B33: GTGCAC_site10665 (dsDNA)
DNA 1: TATGTATATTTTTTTGTGCACATATATATATATATA
DNA 2: TATATATATATATATGTGCACAAAAAAATATACATA
B34: GTGCAC_site9931 (dsDNA)
DNA 1: ATAAAAATAAAAAGTGTGCACACAAAAATATATATA
DNA 2: TATATATATTTTTGTGTGCACACTTTTTATTTTTAT
B35: GTGCAC_site10153 (dsDNA)
DNA 1: AAAATGTAATATTGGGTGCACAATAAGTTTGATGTC
DNA 2: GACATCAAACTTATTGTGCACCCAATATTACATTTT
B36: GTGCAC_site9822 (dsDNA)
DNA 1: ATCGTGTTAAATGTTGTGCACATATAAATTACAAAA
DNA 2: TTTTGTAATTTATATGTGCACAACATTTAACACGAT

Legend:
Experiment in all cases: gcPBM; about 25 ug protein; PBS, 1% milk, 0.2 mg/ml BSA, salmon testes DNA, 0.03% Triton X-100
AP2-I D3 = AP2-I D3 (Plasmodium falciparum, UniProt Q8IJW6 910-1027); conditions: tags: N-terminal GST (pGEX-4T-1), kept; label: surface-attached array probe
SIP2 D1 = molecular target: T1, SIP2 D1; conditions: tags: N-terminal GST (pGEX-4T-1), kept; label: surface-attached array probe
HDP1 homeodomain-like = molecular target: T2, HDP1 homeodomain-like; conditions: tags: N-terminal GST (pGEX-4T-1), kept; chain copies: 2; label: surface-attached array probe

| Binder | binding signal (AP2-I D3) | binding signal (SIP2 D1) | binding signal (HDP1 homeodomain-like) |
| --- | --- | --- | --- |
| B1 | 7.05 ln median PBM intensity, better of two orientations | 6.9 ln median PBM intensity, better of two orientations | – |
| B2 | – | – | 11.5 ln median PBM intensity, better of two orientations |
| B3 | – | – | 11.4 ln median PBM intensity, better of two orientations |
| B4 | 11.7 ln median PBM intensity, better of two orientations | 11.1 ln median PBM intensity, better of two orientations | – |
| B5 | 10.3 ln median PBM intensity, better of two orientations | 11.8 ln median PBM intensity, better of two orientations | – |
| B6 | – | – | 11.4 ln median PBM intensity, better of two orientations |
| B7 | – | – | 11.3 ln median PBM intensity, better of two orientations |
| B8 | 7.09 ln median PBM intensity, better of two orientations | 6.92 ln median PBM intensity, better of two orientations | – |
| B9 | 12.2 ln median PBM intensity, better of two orientations | 11.4 ln median PBM intensity, better of two orientations | – |
| B10 | – | – | 11.6 ln median PBM intensity, better of two orientations |
| B11 | 7.24 ln median PBM intensity, better of two orientations | 6.91 ln median PBM intensity, better of two orientations | – |
| B12 | – | – | 11.3 ln median PBM intensity, better of two orientations |
| B13 | – | – | 11.4 ln median PBM intensity, better of two orientations |
| B14 | – | – | 11.4 ln median PBM intensity, better of two orientations |
| B15 | 6.92 ln median PBM intensity, better of two orientations | 6.91 ln median PBM intensity, better of two orientations | – |
| B16 | – | – | 11.5 ln median PBM intensity, better of two orientations |
| B17 | 12.2 ln median PBM intensity, better of two orientations | 11.8 ln median PBM intensity, better of two orientations | – |
| B18 | – | – | 11.7 ln median PBM intensity, better of two orientations |

| Binder | binding signal (AP2-I D3) | binding signal (SIP2 D1) | binding signal (HDP1 homeodomain-like) |
| --- | --- | --- | --- |
| B19 | 6.98 ln median PBM intensity, better of two orientations | 6.88 ln median PBM intensity, better of two orientations | – |
| B20 | – | – | 11.3 ln median PBM intensity, better of two orientations |
| B21 | 12.2 ln median PBM intensity, better of two orientations | 11.7 ln median PBM intensity, better of two orientations | – |
| B22 | – | – | 11.9 ln median PBM intensity, better of two orientations |
| B23 | 11.1 ln median PBM intensity, better of two orientations | 11.6 ln median PBM intensity, better of two orientations | – |
| B24 | 7.19 ln median PBM intensity, better of two orientations | 6.9 ln median PBM intensity, better of two orientations | – |
| B25 | 12 ln median PBM intensity, better of two orientations | 11.6 ln median PBM intensity, better of two orientations | – |
| B26 | 12.2 ln median PBM intensity, better of two orientations | 11.4 ln median PBM intensity, better of two orientations | – |
| B27 | 10.9 ln median PBM intensity, better of two orientations | 11.7 ln median PBM intensity, better of two orientations | – |
| B28 | – | – | 11.4 ln median PBM intensity, better of two orientations |
| B29 | – | – | 11.4 ln median PBM intensity, better of two orientations |
| B30 | 9.77 ln median PBM intensity, better of two orientations | 10.6 ln median PBM intensity, better of two orientations | – |
| B31 | 12.3 ln median PBM intensity, better of two orientations | 10.6 ln median PBM intensity, better of two orientations | – |
| B32 | 10.9 ln median PBM intensity, better of two orientations | 11.4 ln median PBM intensity, better of two orientations | – |
| B33 | – | – | 11.3 ln median PBM intensity, better of two orientations |
| B34 | – | – | 11.3 ln median PBM intensity, better of two orientations |
| B35 | 12.2 ln median PBM intensity, better of two orientations | 11.5 ln median PBM intensity, better of two orientations | – |
| B36 | – | – | 11.3 ln median PBM intensity, better of two orientations |

Source: paper PMC11417369, “DNA sequence and chromatin differentiate sequence-specific transcription factor binding in the human malaria parasite Plasmodium falciparum”
